In patent US12012599B2, “Compositions and methods for modulating left-right differentiation factor (LEFTY) and bone morphogenic factor (BMP)” (CZ Biohub SF LLC, priority 2018, dated 2024):

B1: BMP7: bone morphogenetic protein 7, BMPR2 ligand (protein)
chain: STGSKQRSQNRSKTPKNQEALRMANVAENSSSDQRQACKKHELYVSFRDLGWQDWIIAPEGYAAYYCEGECAFPLNSYMNATNHAIVQTLVHFINPETVPKPCCAPTQLNAISVLYFDDSSNVILKKYRNMVVRACGCH
B2: LEFTY1: left-right determination factor 1, secreted TGF-β superfamily protein; generic LEFTY may mean LEFTY1 or LEFTY2 (protein, UniProt O75610 77-366, looked up)
Left-right determination …: RFSQSFREVAGRFLALEASTHLLVFGMEQRLPPNSELVQAVLRLFQEPVPKAALHRHGRLSPRSARARVTVEWLRVRDDGSNRTSLIDSRLVSVHESGWKAFDVTEAVNFWQQLSRPRQPLLLQVSVQREHLGPLASGAHKLVRFASQGAPAGLGEPQLELHTLDLGDYGAQGDCDPEAPMTEGTRCCRQEMYIDLQGMKWAENWVLEPPGFLAYECVGTCRQPPEALAFKWPFLGPRQCIASETDSLPMIVSIKEGGRTRPQVVSLPNMRVQKCSCASDGALVPRRLQP

Legend:
Type in all cases: in vivo, mouse
pSMAD2 = test: Immunofluorescent pSMAD2 positive cells in mammary glands exposed to ligand-secreting fibroblasts; details: basal and luminal compartments
Procedure: (§1) FIGS. 4A-4I. LEFTY1 inhibits the phosphorylation of SMAD2 and SMAD5 in basal mammary epithelial cells. FIGS. 4A-4C show exemplary quantification of pSMAD2 and pSMAD5 positive cells within the luminal and basal cells of mammary glands isolated from mice that were injected with control or LEFTY1-secreting L1 fibroblasts. Immunofluorescent detection of pSMAD2 or pSMAD5 proteins was used to visualize positive cells. KRT8 and SMA were used to determine the luminal or basal cells, respectively. […] Immunofluorescent detection of pSMAD2 or pSMAD5 proteins was used to visualize positive cells. KRT8 and SMA were used to determine the luminal or basal cells, respectively. FIGS. 4H-4I show representative images of the quantified sections for pSMAD2 and pSMAD5 analysis (Magnification, 400×). Data are represented as median±S.D. Statistical analysis, Student's T-test, n.s. non-significant; ****p<0.0001.

mammary gland = test: Mammary branching after injection of LEFTY1- or BMP7-secreting L1 fibroblasts into mammary fat-pad; details: secreted ligand from transplanted fibroblasts; whole mount staining
Procedure: FIGS. 2A-2F. Effect of LEFTY1 and BMP7 in mammary glands. […] Ducts and terminal end buds (TEB) were analyzed for BMP7 positive cells. SMA and DAPI were used to identify basal cells and for nuclear counterstain, respectively (Magnification 200×). […] Ducts and terminal end buds (TEB) were analyzed for LEFTY1 positive cells. SMA and DAPI were used to identify basal cells and for nuclear counterstain, respectively (Magnification 200×). […] Four to seven images per mouse were analyzed for quantification. […] Four to seven images per mice were analyzed for quantification. […] Data are represented as median±S.E.M. Statistical analysis, Student's T-test, *p<0.05; ***p<0.001.
FIGS. 3A-3C. Effects of LEFTY1 and BMP7 on the morphology of the mouse mammary gland. […] Four to seven images per mouse were analyzed for quantification. […] Four to seven images per mouse were analyzed for quantification. Data are represented as median±S.E.M. Statistical analysis, Student's T-test, *p<0.05; **p<0.01; ****p<0.0001.
We first developed a system where transplantation of engineered non-autologous mammary fibroblast cells secreted particular ligands (FIG. 2C). […] These opposing results were unexpected, since both LEFTY1 and BMP7 have been described to have similar suppressive roles on NODAL/SMAD2/3 signaling (Chen et al., Current biology: CB 14, 618-624 (2004) and Yeo et al., Molecular cell 7, 949-957 (2001)).

pSMAD5 = test: Immunofluorescent pSMAD5 positive cells in mammary glands exposed to ligand-secreting fibroblasts
Procedure: as §1
FIGS. 5A-5H. LEFTY1 inhibits pSMAD2 and pSMAD5 in the basal mammary epithelial cells. […] KRT8 was used to stain the luminal cells and SMA for basal cells (Magnification 400×). […] Gapdh was used as a housekeeping gene. […] Ten different fields were counted per condition (n=3). Data are represented as median±S.D. Statistical analysis, (a and b) Student's T-test, * p<0.05; (h) One-way ANOVA with Dunnet's adjustment, ****p<0.0001.

mammary epithelial cells = test: Mammary outgrowth formation on transplantation (ELDA); details: primary transplantation
Text: FIGS. 10A-10G. Mammary epithelial cells rely on LEFTY1 for their long-term proliferation potential. FIG. 10A is a schematic representation of the procedure used to inject control, LEFTY1- or BMP7-expressing mammary fibroblasts into the proximity of the mammary gland of 14-18 weeks old NSG female mice. Two to three weeks later, the mammary epithelial cells were isolated and injected in a limiting dilution fashion into weaning age […] mice to assess their engraftment potential. […] The next day, the transduced cells were injected in the cleared fat-pads of weaning age mice in order to test their exogenous mammary epithelial repopulation ability. […]
FIGS. 11A-11F. […] The number of positive outgrowths from the total of transplanted glands are shown, as well as the frequency and 95% CI of engrafting cells calculated by ELDA. […] The frequency and 95% CI was calculated using extreme limiting dilution analysis (ELDA). […]
Alteration of signaling pathways such as Wnt, Hedgehog and Notch results in branching phenotypes that may be linked to the frequency of cells that can be transplanted and originate mammary ducts in recipient mice (Lu & Werb, Science 322, 1506-1509 (2008)). We transplanted endogenous mammary epithelial cells that had been exposed to LEFTY1 or BMP7 for ^˜15 days in vivo and assessed ductal outgrowth formation upon transplantation into secondary recipients (FIG. 10A). […]

Molecule	pSMAD2 expression (pSMAD2)	extent and number of mammary tree branches (mammary gland)	pSMAD5 in basal cells (pSMAD5)	pSMAD5 protein levels in luminal cells (pSMAD5)	frequency of ductal outgrowths (mammary epithelial cells)
B1	no effect	decreased	significant increase	no effect	did not affect
B2	significant decrease	significant localized increase	significant decrease	significant decrease	significantly increased
